The assay deals with T1, CGEN-CL1 peptide FYFWMNGDRIDSLLENDRQQT [SEQ ID NO: 1] (human, acetylated at its N-terminus; amidated at its C-terminus).
T1 construct: Made by solid-phase synthesis (Pepscan); molecular weight 2690.1
T1 peptide: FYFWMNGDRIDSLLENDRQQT
In words: SPR competition (BIAcore), peptides preincubated 30 min at 10 uM each, injected over immobilized clusterin. On the procedure:
Peptide-protein interaction was analyzed using surface plasmon resonance. Analysis of the interaction between CGEN-CL1 [SEQ ID NO:1] and recombinant human clusterin (Biovendor, Modrice, Czech republic cat no: RD172034100) was conducted using the BIAcore biosensor (Pharmacia Biosensor, Uppsala, Sweden). Clusterin was immobilized directly to a CM5 sensor chip (2000 resonance units (RU)). Solution containing either 10 μM of CGEN-CL1 [SEQ ID NO:1] peptide or a mixture of CGEN-CL1 and its partner helix (SEQ ID NO:5), 10 μM each, preincubated for 30 minutes at room temperature, was injected to the BIAcore. As a background, the solutions were also injected onto an empty flow cell with no immobilized ligand and the binding levels achieved were subtracted. Data was analyzed using BIAevaluation software.
Background: SPR reads the build-up and loss of mass on a sensor chip optically.

B1: partner helix peptide RLTRKYNELLKSYQWKMLNTSS [SEQ ID NO: 5] (peptide)
peptide: Ac-RLTRKYNELLKSYQWKMLNTSS-NH2
notes: Made by solid-phase synthesis (Pepscan); molecular weight 2760.2; also called helix partner; counterpart helix peptide
As to B1, the binding result is “binds”.

These data come from patent US20100322938A1 (COMPUGEN, published 2010).
